*1 amine or outer side, *2 acyl side, *3 side chain or, on linkers, in order; H or OH if unused. Primed or numbered codes have the meaning given here. Side-chain parts run from the residue outwards. [ ]: non-standard residue; d: D form. The star is where a group is joined. TTDS = 4-[3-[2-[2-(3-aminopropoxy)ethoxy]ethoxy]propylamino]-4-oxo-butanoyl, O=C(CCC(=O)[*:2])NCCCOCCOCCOCCCN[*:1]; PEG8′ = 2-[2-[2-[2-[2-[2-[2-[2-[2-aminoethoxy]ethoxy]ethoxy]ethoxy]ethoxy]ethoxy]ethoxy]ethoxy]ethoxy]propanoyl; TTDS″ = 4-[3-[2-[2-(3-aminopropoxy)ethoxy]ethoxy]propylamino]-4-oxo-butanoyl; TtdDga = O=C(COCC(=O)[*:2])NCCCOCCOCCOCCCN[*:1]; γGlu = O=C(O)[C@H](CCC(=O)[*:2])N[*:1]; Pentadecanoyl = CCCCCCCCCCCCCCC(=O)*; Stearoyl = CCCCCCCCCCCCCCCCCC(=O)*; Palmitoyl = CCCCCCCCCCCCCCCC(=O)*; Myristoyl = CCCCCCCCCCCCCC(=O)*; αMeK = C[C@](N)(CCCCN)C(=O)O; Nle = CCCC[C@H](N)C(=O)O; PEG2′ = PEG2 spacer unit; Aib = CC(C)(N)C(=O)O
T1: RXFP1 receptor (UniProt Q9HBX9 1-757, limits assumed)
T1 sequence (looked up): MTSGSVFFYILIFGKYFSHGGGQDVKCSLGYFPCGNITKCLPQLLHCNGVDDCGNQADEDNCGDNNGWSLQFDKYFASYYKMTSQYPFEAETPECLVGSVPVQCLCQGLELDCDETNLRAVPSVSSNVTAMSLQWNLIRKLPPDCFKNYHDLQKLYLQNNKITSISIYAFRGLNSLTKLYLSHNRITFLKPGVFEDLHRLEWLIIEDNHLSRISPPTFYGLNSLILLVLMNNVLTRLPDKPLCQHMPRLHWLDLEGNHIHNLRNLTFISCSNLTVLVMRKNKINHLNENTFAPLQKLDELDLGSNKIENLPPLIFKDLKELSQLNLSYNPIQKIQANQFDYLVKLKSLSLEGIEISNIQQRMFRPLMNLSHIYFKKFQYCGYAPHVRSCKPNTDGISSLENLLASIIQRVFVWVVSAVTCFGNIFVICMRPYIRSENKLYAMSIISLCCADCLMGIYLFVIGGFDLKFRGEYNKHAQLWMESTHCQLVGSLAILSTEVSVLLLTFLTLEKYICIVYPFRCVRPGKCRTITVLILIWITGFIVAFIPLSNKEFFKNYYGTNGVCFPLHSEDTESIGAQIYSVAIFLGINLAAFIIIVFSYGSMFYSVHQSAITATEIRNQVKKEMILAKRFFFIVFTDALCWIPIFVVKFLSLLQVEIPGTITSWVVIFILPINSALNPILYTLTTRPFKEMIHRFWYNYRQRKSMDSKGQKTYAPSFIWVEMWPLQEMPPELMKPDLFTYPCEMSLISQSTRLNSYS


Target: T1, RXFP1 receptor
Experiment: cell-based or functional assay

Binder | EC50 (nM), OVCAR 5 cells (cAMP) | EMax, OVCAR 5 cells (cAMP)
Ac-LEGREKVRAK(Ac)I[Aib][Aib]EG[Nle]STWS[Aib]RKK(Ac)[TtdDga][TtdDga][TtdDga]K([γGlu-γGlu-γGlu-Stearoyl])-NH2 (SMILES CCCCCCCCCCCCCCCCCC(=O)N[C@@H](CCC(=O)N[C@@H](CCC(=O)N[C@@H](CCC(=O)NCCCC[C@H](NC(=O)COCC(=O)NCCCOCCOCCOCCCNC(=O)COCC(=O)NCCCOCCOCCOCCCNC(=O)COCC(=O)NCCCOCCOCCOCCCNC(=O)[C@H](CCCCNC(C)=O)NC(=O)[C@H](CCCCN)NC(=O)[C@H](CCCNC(=N)N)NC(=O)C(C)(C)NC(=O)[C@H](CO)NC(=O)[C@H](Cc1c[nH]c2ccccc12)NC(=O)[C@@H](NC(=O)[C@H](CO)NC(=O)[C@H](CCCC)NC(=O)CNC(=O)[C@H](CCC(=O)O)NC(=O)C(C)(C)NC(=O)C(C)(C)NC(=O)[C@@H](NC(=O)[C@H](CCCCNC(C)=O)NC(=O)[C@H](C)NC(=O)[C@H](CCCNC(=N)N)NC(=O)[C@@H](NC(=O)[C@H](CCCCN)NC(=O)[C@H](CCC(=O)O)NC(=O)[C@H](CCCNC(=N)N)NC(=O)CNC(=O)[C@H](CCC(=O)O)NC(=O)[C@H](CC(C)C)NC(C)=O)C(C)C)[C@@H](C)CC)[C@@H](C)O)C(N)=O)C(=O)O)C(=O)O)C(=O)O) [peptide of SEQ ID NO: 20] | 0.45 nM | 88%
Ac-LEGREKVRAK(Ac)I[Aib][Aib]EGQSTFS[αMeK]RAK(Ac)K([TTDS″-TTDS″-TTDS″-γGlu-γGlu-γGlu-Pentadecanoyl])-NH2 [peptide of SEQ ID NO: 189] | 0.42 nM | 100%
Ac-LEGREKVRAK(Ac)I[Aib][Aib]EG[Nle]STFS[αMeK]RAK(Ac)[PEG2′][PEG2′][PEG2′][PEG2′]K([γGlu-γGlu-γGlu-Palmitoyl])-NH2 [peptide of SEQ ID NO: 192] | 0.62 nM | 91%
Ac-LEGREKVRAK(Ac)I[Aib][Aib]EGQSTFS[αMeK]RAK(Ac)[PEG2′][PEG2′][PEG2′][PEG2′][γGlu][γGlu]K([γGlu-γGlu-Palmitoyl])-NH2 [peptide of SEQ ID NO: 185] | 0.05 nM | 100%
Ac-LEGREKVRAK(Ac)I[Aib][Aib]EGQSTWS[Aib]RKK(Ac)K([PEG2′-PEG2′-PEG2′-PEG2′-γGlu-γGlu-γGlu-γGlu-Stearoyl])-NH2 [peptide of SEQ ID NO: 180] | 1.18 nM | 84%
Ac-LEGREKVRAK(Ac)I[Aib][Aib]EGQSTFS[αMeK]RAK(Ac)K([PEG2′-PEG2′-PEG2′-PEG2′-γGlu-γGlu-γGlu-γGlu-Palmitoyl])-NH2 [peptide of SEQ ID NO: 191] | 0.17 nM | 93%
Ac-LEGREKVRAK(Ac)I[Aib][Aib]EGQSTFS[αMeK]RAK(Ac)[PEG2′][PEG2′][PEG2′][PEG2′]K([γGlu-γGlu-γGlu-γGlu-Myristoyl])-NH2 [peptide of SEQ ID NO: 190] | 1.29 nM | 93%
Ac-LEGREKVRAK(Ac)I[Aib][Aib]EG[Nle]STWS[Aib]RKK(Ac)[PEG8′]K([γGlu-γGlu-γGlu-Palmitoyl])-NH2 [peptide of SEQ ID NO: 181] | 1.63 nM | 79%
Ac-LEGREKVRAK(Ac)I[Aib][Aib]EGQSTFS[αMeK]RAK(Ac)[PEG2′][PEG2′][PEG2′][PEG2′]K([γGlu-γGlu-γGlu-γGlu-Pentadecanoyl])-NH2 [peptide of SEQ ID NO: 182] | 0.19 nM | 99%
Ac-LEGREKVRAK(Ac)I[Aib][Aib]EGQSTFS[αMeK]RAK(Ac)[PEG2′][PEG2′][PEG2′][PEG2′][γGlu][γGlu]K([γGlu-γGlu-Pentadecanoyl])-NH2 [peptide of SEQ ID NO: 186] | 0.18 nM | 100%
Ac-LEGREKVRAK(Ac)I[Aib][Aib]EG[Nle]STFS[αMeK]RAK(Ac)[TTDS][TTDS][TTDS]K([γGlu-γGlu-γGlu-Palmitoyl])-NH2 (SMILES CCCCCCCCCCCCCCCC(=O)N[C@@H](CCC(=O)N[C@@H](CCC(=O)N[C@@H](CCC(=O)NCCCC[C@H](NC(=O)CCC(=O)NCCCOCCOCCOCCCNC(=O)CCC(=O)NCCCOCCOCCOCCCNC(=O)CCC(=O)NCCCOCCOCCOCCCNC(=O)[C@H](CCCCNC(C)=O)NC(=O)[C@H](C)NC(=O)[C@H](CCCNC(=N)N)NC(=O)[C@](C)(CCCCN)NC(=O)[C@H](CO)NC(=O)[C@H](Cc1ccccc1)NC(=O)[C@@H](NC(=O)[C@H](CO)NC(=O)[C@H](CCCC)NC(=O)CNC(=O)[C@H](CCC(=O)O)NC(=O)C(C)(C)NC(=O)C(C)(C)NC(=O)[C@@H](NC(=O)[C@H](CCCCNC(C)=O)NC(=O)[C@H](C)NC(=O)[C@H](CCCNC(=N)N)NC(=O)[C@@H](NC(=O)[C@H](CCCCN)NC(=O)[C@H](CCC(=O)O)NC(=O)[C@H](CCCNC(=N)N)NC(=O)CNC(=O)[C@H](CCC(=O)O)NC(=O)[C@H](CC(C)C)NC(C)=O)C(C)C)[C@@H](C)CC)[C@@H](C)O)C(N)=O)C(=O)O)C(=O)O)C(=O)O) [peptide of SEQ ID NO: 187] | 0.33 nM | 100%
Ac-LEGREKVRAK(Ac)I[Aib][Aib]EG[Nle]STFS[αMeK]RAK(Ac)K([TTDS″-TTDS″-TTDS″-γGlu-γGlu-γGlu-Palmitoyl])-NH2 [peptide of SEQ ID NO: 183] | 0.08 nM | 94%
Ac-LEGREKVRAK(Ac)I[Aib][Aib]EG[Nle]STFS[αMeK]RAK(Ac)[TTDS][TTDS][TTDS]K([γGlu-γGlu-γGlu-Pentadecanoyl])-NH2 (SMILES CCCCCCCCCCCCCCC(=O)N[C@@H](CCC(=O)N[C@@H](CCC(=O)N[C@@H](CCC(=O)NCCCC[C@H](NC(=O)CCC(=O)NCCCOCCOCCOCCCNC(=O)CCC(=O)NCCCOCCOCCOCCCNC(=O)CCC(=O)NCCCOCCOCCOCCCNC(=O)[C@H](CCCCNC(C)=O)NC(=O)[C@H](C)NC(=O)[C@H](CCCNC(=N)N)NC(=O)[C@](C)(CCCCN)NC(=O)[C@H](CO)NC(=O)[C@H](Cc1ccccc1)NC(=O)[C@@H](NC(=O)[C@H](CO)NC(=O)[C@H](CCCC)NC(=O)CNC(=O)[C@H](CCC(=O)O)NC(=O)C(C)(C)NC(=O)C(C)(C)NC(=O)[C@@H](NC(=O)[C@H](CCCCNC(C)=O)NC(=O)[C@H](C)NC(=O)[C@H](CCCNC(=N)N)NC(=O)[C@@H](NC(=O)[C@H](CCCCN)NC(=O)[C@H](CCC(=O)O)NC(=O)[C@H](CCCNC(=N)N)NC(=O)CNC(=O)[C@H](CCC(=O)O)NC(=O)[C@H](CC(C)C)NC(C)=O)C(C)C)[C@@H](C)CC)[C@@H](C)O)C(N)=O)C(=O)O)C(=O)O)C(=O)O) [peptide of SEQ ID NO: 188] | 0.75 nM | 100%
Ac-LEGREKVRAK(Ac)I[Aib][Aib]EGQSTYS[Aib]RKK(Ac)[PEG2′][PEG2′][PEG2′]K([γGlu-γGlu-γGlu-Palmitoyl])-NH2 [peptide of SEQ ID NO: 179] | 19.9 nM | 80%
Ac-LEGREKVRAK(Ac)I[Aib][Aib]EG[Nle]STWS[Aib]RKK(Ac)[TtdDga][TtdDga]K([γGlu-γGlu-γGlu-Stearoyl])-NH2 (SMILES CCCCCCCCCCCCCCCCCC(=O)N[C@@H](CCC(=O)N[C@@H](CCC(=O)N[C@@H](CCC(=O)NCCCC[C@H](NC(=O)COCC(=O)NCCCOCCOCCOCCCNC(=O)COCC(=O)NCCCOCCOCCOCCCNC(=O)[C@H](CCCCNC(C)=O)NC(=O)[C@H](CCCCN)NC(=O)[C@H](CCCNC(=N)N)NC(=O)C(C)(C)NC(=O)[C@H](CO)NC(=O)[C@H](Cc1c[nH]c2ccccc12)NC(=O)[C@@H](NC(=O)[C@H](CO)NC(=O)[C@H](CCCC)NC(=O)CNC(=O)[C@H](CCC(=O)O)NC(=O)C(C)(C)NC(=O)C(C)(C)NC(=O)[C@@H](NC(=O)[C@H](CCCCNC(C)=O)NC(=O)[C@H](C)NC(=O)[C@H](CCCNC(=N)N)NC(=O)[C@@H](NC(=O)[C@H](CCCCN)NC(=O)[C@H](CCC(=O)O)NC(=O)[C@H](CCCNC(=N)N)NC(=O)CNC(=O)[C@H](CCC(=O)O)NC(=O)[C@H](CC(C)C)NC(C)=O)C(C)C)[C@@H](C)CC)[C@@H](C)O)C(N)=O)C(=O)O)C(=O)O)C(=O)O) [peptide of SEQ ID NO: 19] | 0.15 nM | 96%
